Measured values from paper PMC5922973, “Topoisomerase VI senses and exploits both DNA crossings and bends to facilitate strand passage” (eLife, 2018).

Columns and labels:
Settings in all cases: protein: recombinant; tags: N-terminal His6-TEV on Top6B, removed; chain copies: 2;2; label: 5'-FAM strand 1; blunt
topo VI KGRR-AAA [1] = biological target: T1, topo VI KGRR-AAA (Methanosarcina mazei, UniProt Q8PUB7;Q8PUB8 1-369;1-621, K186A;R188A;R189A); experiment: fluorescence anisotropy; Fluorescence anisotropy, 20 nM FAM-labelled DNA, topo VI 0 and 3.9-4000 nM, no nucleotide; buffer, salt, pH and temperature not given in supplied text
T1 sequence 1: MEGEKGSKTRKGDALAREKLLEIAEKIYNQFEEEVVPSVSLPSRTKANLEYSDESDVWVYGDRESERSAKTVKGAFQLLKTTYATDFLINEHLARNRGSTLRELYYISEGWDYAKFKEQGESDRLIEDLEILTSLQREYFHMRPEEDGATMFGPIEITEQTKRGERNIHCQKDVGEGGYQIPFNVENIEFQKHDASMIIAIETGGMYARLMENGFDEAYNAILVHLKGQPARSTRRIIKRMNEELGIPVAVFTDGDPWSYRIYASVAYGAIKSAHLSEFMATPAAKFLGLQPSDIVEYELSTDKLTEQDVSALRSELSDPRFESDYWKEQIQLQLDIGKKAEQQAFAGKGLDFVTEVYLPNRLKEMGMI
T1 sequence 2: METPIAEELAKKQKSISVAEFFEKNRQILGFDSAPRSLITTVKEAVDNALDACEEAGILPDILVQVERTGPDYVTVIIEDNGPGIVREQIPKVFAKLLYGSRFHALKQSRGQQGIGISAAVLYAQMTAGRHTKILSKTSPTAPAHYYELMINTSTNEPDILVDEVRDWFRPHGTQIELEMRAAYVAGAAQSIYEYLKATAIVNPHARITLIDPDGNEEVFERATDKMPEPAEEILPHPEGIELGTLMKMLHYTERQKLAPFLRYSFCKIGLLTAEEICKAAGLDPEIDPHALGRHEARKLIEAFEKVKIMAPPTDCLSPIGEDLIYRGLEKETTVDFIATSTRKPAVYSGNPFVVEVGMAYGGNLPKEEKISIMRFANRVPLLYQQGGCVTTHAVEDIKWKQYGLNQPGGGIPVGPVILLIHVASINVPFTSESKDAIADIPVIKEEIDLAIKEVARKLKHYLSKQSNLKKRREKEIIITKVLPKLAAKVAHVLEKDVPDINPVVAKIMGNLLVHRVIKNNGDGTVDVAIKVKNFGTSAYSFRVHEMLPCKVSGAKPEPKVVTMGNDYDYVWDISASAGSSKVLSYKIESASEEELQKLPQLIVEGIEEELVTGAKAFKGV

topo VI KGRR-EEE [2] = biological target: T2, topo VI KGRR-EEE (Methanosarcina mazei, UniProt Q8PUB7;Q8PUB8 1-369;1-621, K186E;R188E;R189E); experiment: as above
T2 sequence 1: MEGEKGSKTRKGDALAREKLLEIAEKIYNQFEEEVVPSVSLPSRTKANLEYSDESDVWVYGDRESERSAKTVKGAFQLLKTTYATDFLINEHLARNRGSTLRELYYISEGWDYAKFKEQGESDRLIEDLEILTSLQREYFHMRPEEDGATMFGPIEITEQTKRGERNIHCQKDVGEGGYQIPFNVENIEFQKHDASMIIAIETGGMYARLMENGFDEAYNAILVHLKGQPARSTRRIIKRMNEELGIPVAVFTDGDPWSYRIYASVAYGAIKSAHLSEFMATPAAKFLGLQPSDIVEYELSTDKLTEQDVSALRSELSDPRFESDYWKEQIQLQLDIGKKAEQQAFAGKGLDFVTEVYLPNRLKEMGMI
T2 sequence 2: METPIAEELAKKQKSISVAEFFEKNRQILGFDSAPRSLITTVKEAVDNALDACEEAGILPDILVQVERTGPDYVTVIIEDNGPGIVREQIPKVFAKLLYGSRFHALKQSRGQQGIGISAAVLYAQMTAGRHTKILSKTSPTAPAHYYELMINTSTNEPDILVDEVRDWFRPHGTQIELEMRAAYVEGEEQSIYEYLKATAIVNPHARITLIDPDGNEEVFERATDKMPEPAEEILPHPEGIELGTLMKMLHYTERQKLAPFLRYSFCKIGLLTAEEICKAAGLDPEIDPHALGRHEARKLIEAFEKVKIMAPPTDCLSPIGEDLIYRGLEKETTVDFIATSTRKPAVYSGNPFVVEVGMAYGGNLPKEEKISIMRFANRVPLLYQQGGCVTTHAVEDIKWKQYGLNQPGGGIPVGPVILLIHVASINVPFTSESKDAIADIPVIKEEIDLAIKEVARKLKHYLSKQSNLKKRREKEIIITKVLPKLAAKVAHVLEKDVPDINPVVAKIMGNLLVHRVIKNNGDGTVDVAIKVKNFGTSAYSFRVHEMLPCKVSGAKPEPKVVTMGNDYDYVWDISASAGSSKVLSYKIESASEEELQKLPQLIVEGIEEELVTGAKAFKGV

topo VI KGRR-AAA [3] = biological target: T1, topo VI KGRR-AAA; experiment: fluorescence anisotropy; FA: 20 nM probe, 50 mM K-glutamate, 20 mM HEPES-KOH pH 7.5, 10 mM MgCl2, 5% glycerol, 1 mM TCEP, 0.1 mg/mL BSA; incubated on ice, read at ambient temperature; competition with 100 nM enzyme
topo VI KGRR-EEE [4] = biological target: T2, topo VI KGRR-EEE; experiment: as above

Binder | Kd (topo VI KGRR-AAA [1]) [nM] | Kd (topo VI KGRR-EEE [2]) [nM] | Kd (topo VI KGRR-AAA [3]) [nM] | Kd (topo VI KGRR-EEE [4]) [nM]
20 bp duplex (dsDNA) DNA 1: CGGAAGAGTATGAGTATTCG DNA 2: CGAATACTCATACTCTTCCG | 338 ± 11 | 338 ± 15 | – | –
60 bp duplex (dsDNA) DNA 1: CGCTTCAATAATATTGAAAAAGGAAGAGTATGAGTATTCAACATTTCCGTGTCGCCCTTC DNA 2: GAAGGGCGACACGGAAATGTTGAATACTCATACTCTTCCTTTTTCAATATTATTGAAGCG | 99 ± 2 | 119 ± 3 | 99 ± 2 | 119 ± 3
40 bp duplex (dsDNA) DNA 1: CTATTGAAAAAGGAAGAGTATGAGTATTCAACATTTCCGC DNA 2: GCGGAAATGTTGAATACTCATACTCTTCCTTTTTCAATAG | 67 ± 4 | 75 ± 4 | – | –
70 bp duplex (dsDNA) DNA 1: CCAAATGCTTCAATAATATTGAAAAAGGAAGAGTATGAGTATTCAACATTTCCGTGTCGCCCTTATTCCC DNA 2: GGGAATAAGGGCGACACGGAAATGTTGAATACTCATACTCTTCCTTTTTCAATATTATTGAAGCATTTGG | 124 ± 6 | 193 ± 4 | – | –
30 bp duplex (dsDNA) DNA 1: CAAAAAGGAAGAGTATGAGTATTCAACATC DNA 2: GATGTTGAATACTCATACTCTTCCTTTTTG | 65 ± 4 | 82 ± 7 | – | –
